# Entries after “also recorded” stand apart in the source; their conditions may differ. Bridge positions count the residues as written; N and C are the ends. Square brackets hold non-standard residues; d marks the D form. Ends that are not written are not given here. 1Nal = N[C@@H](Cc1cccc2ccccc12)C(=O)O; Sar = CNCC(=O)O
# Tests used:
# [1] = Pharmacology studies in animals, stimulation of erythropoiesis; format: in vivo, mice; rats, dogs, rabbits and monkeys
# [2] = Pharmacokinetic studies in rats; format: in vivo; settings: species not stated
# [3] = Phase 1 single IV dose study in normal healthy volunteers, pharmacodynamics; format: in vivo, human
# Text: (§1) Peptide I has been tested in […] in one Phase 1 study. This first-in-human study with Peptide I was a randomized, double-blind, placebo-controlled, single-dose, IV, escalating dose, safety and tolerability trial. The primary objectives of the study were to evaluate the safety and pharmacokinetics of Peptide I, and to establish a pharmacologically active dose (PAD). Cohorts of seven male volunteers were scheduled to receive single doses of Peptide I or placebo in a 5:2 ratio. Cohorts were to be added at increasing dose levels until a PAD, as determined by an increase in hemoglobin from baseline values, was observed, at which point the dose level identified as the PAD would be repeated in another cohort of volunteers.
# (§2) The study was initiated in four cohorts were enrolled in a consecutive manner at Peptide I doses of 0.025, 0.05, 0.1 mg/kg, and […], respectively (single dose per cohort). […] As such, the study was terminated.
# [4] = Phase 1 single IV dose study in normal healthy volunteers, pharmacokinetics; format: in vivo, human; settings: dose normalized, ANOVA
# Text: as §1, §2
# In the 0.025 mg/kg dose group, Peptide I concentration peaked between 5 and 15 minutes, while tmax approached 1 hour for the 0.1 mg/kg dose.
# [5] = Phase 1 single IV dose study in normal healthy volunteers, safety; format: in vivo, human
# Text: as §1, §2
# [6] = Phase II multi-dose once-monthly SC study in pre-dialysis chronic kidney disease patients; format: in vivo, human
# Description: A multi-center, open-label, sequential dose-finding phase II clinical trial involving patients with chronic kidney disease was performed in order to evaluate the safety and pharmacodynamics of multiple doses of once-monthly (Q4W) subcutaneous (SC) delivery of Peptide I (SEQ ID NO:2). A total of 60 erythropoiesis-stimulating-agent-naïve, pre-dialysis, chronic kidney disease (CKD) patients [hemoglobin (Hgb) levels 9.0-10.9 g/dL, ferritin >100 ug/L and transferrin saturation (TSAT)>20%] were enrolled into three dose cohorts. Patients received up to six once-monthly SC drug doses. The starting doses were 0.025 mg/kg (n=15), 0.050 mg/kg (n=30) and 0.075 mg/kg (n=15). Dose titration was allowed after the first dose, based on patient Hgb levels.
# Dose titrations were allowed after the patient's initial dose. Dose adjustments were ±25% of the previous dose, depending on the patient's measured hemoglobin (Hgb) level.
substance,measurement,setting,value
"PEGylated homodimer of peptide monomers (AcG)GLYACHMGPIT(1-nal)VCQPLR(MeG)K (SEQ ID NO: 2); fully synthetic EPO receptor agonist (Ac-GGLYACHMGPIT[1Nal]VCQPLR[Sar]K; disulfide 6-15 (inferred); not fully specified (residue 1); printed as (AcG)GLYACHMGPIT(1-nal)VCQPLR(MeG)K; also: homodimer via branched linker on K21 ε-amino group, PEG attached to linker) [Peptide I]",rise in reticulocytes and RBCs as measured by hemoglobin levels,[1]; rats and monkeys,dose proportional
same,stimulation of erythropoiesis,"[1]; single or repeat dose, mice, rats (normocythemic and nephrectomized), dogs, rabbits, monkeys",dose-dependent activity
same,Biodistribution,[2],primarily to the plasma fraction
same,increase in hemoglobin associated with the PAD,[3]; 0.1 mg/kg,≥ 1.0 g/dL
same,average maximum increase in hemoglobin from baseline,"[3]; 0.1 mg/kg, 10 recipients",1.36 ± 0.39 g/dL
same,average hemoglobin levels at Day 42,"[3]; 0.1 mg/kg, Day 42",returned to baseline
same,difference in change from baseline hemoglobin versus placebo,"[3]; 0.1 mg/kg, Day 42 as throughout the study",≥ 0.5 g/dL
same,time of maximum reticulocyte counts postdose,[3]; all dose cohorts,approximately 7 days
same,"changes in other pharmacodynamic parameters (red cell count, hematocrit, ferritin, reticulocyte hemoglobin content, soluble transferrin receptor, EPO)","[3]; human, in vivo",consistent with stimulation of erythropoiesis
same,hemoglobin response and change from baseline (mean and maximum),[3]; over 28 days post-dose,dose-dependent increases
same,Reticulocyte count (absolute number and percent),"[3]; single IV 0.025, 0.05, 0.1 mg/kg",dose-dependent increase
same,pharmacologically active dose (PAD),"[3]; single IV dose, NHV",0.1 mg/kg
same,Serum EPO levels,[3]; with increasing dose,transiently decreased
same,AUC(0-infinity) relationship with dose,[4],evidence of non-linearity at the highest dose of 0.1 mg/kg; also recorded: nonlinear at the 0.1 mg/kg dose
same,"abdominal pain, frequency",[5]; Peptide I recipients,10.0%
same,"headache, frequency",[5]; Peptide I recipients,20.0%
same,"nasopharyngitis, frequency",[5]; Peptide I recipients,10.0%
same,"nausea, frequency",[5]; Peptide I recipients,10.0%
same,subjects who experienced adverse events,[5]; Peptide I recipients,11 of 20
same,Serious Adverse Events,"[5]; human, in vivo",no Serious Adverse Events
same,antibodies specific to Peptide I,"[5]; human, in vivo",None of the subjects in this trial developed antibodies
same,"vital signs, electrocardiograms (ECGs) or laboratory values","[5]; human, in vivo",no clinically significant changes
same,safety and tolerability,"[5]; single IV doses of 0.025, 0.05, or 0.1 mg/kg",safe and well tolerated
same,patients reporting adverse events,[6]; 60 patients,18%
same,injection site reaction,[6]; SC,no injection site reaction was reported
same,hemoglobin (Hgb) increase,[6]; dosed monthly,sustained increase in hemoglobin (Hgb) up to week 22
same,number of adverse events,"[6]; human, in vivo",36
same,relation of adverse events to study drug,"[6]; human, in vivo",not related to study drug
same,tolerability of multiple monthly subcutaneous injections,"[6]; human, in vivo, sc",well-tolerated
same,correction of anaemia,[6]; monthly dosing,correction of anaemia in patients by week eight

# From patent US7919461B2, “Erythropoietin receptor peptide formulations and uses” (Affymax, Inc., priority 2005, dated 2011)
